Target: T1, SmcH-CC100 (Bacillus subtilis, UniProt P51834 400-774)
T1 sequence: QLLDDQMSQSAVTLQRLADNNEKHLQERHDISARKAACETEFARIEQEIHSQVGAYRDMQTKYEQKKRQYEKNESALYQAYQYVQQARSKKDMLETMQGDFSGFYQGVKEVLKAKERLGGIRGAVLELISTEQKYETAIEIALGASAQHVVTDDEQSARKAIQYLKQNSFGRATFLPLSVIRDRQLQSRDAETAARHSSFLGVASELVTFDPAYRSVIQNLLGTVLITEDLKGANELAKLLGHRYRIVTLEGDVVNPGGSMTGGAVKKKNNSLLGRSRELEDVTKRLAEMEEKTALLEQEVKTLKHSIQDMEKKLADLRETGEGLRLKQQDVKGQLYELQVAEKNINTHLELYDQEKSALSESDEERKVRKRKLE
Experiment: fluorescence anisotropy

B1: 40 bp random-sequence dsDNA (dsDNA)
DNA 1: TTAGTTGTTCGTAGTGCTCGTCTGGCTCTGGATTACCCGC
DNA 2: GCGGGTAATCCAGAGCCAGACGAGCACTACGAACAACTAA
Q: Does B1 bind?
A: binds
